Results as given in patent publication US9920133B2, “Anti-tissue factor monoclonal antibody” (NATIONAL CANCER CENTER, priority 2014, dated 2018).

Tests used:
[1] = test system: Mouse B16 melanoma cells and cells thereof that were forced to express TF; assay: Internalization assay (anti-mTF antibody); format: cell-based; settings: mouse B16 melanoma cells and TF-forced-expression cells, 30 μg Alexa 647-labeled antibody, 3 hours
Experimental: (§1) Each monoclonal antibody obtained as described above was subjected to the following internalization assay.
(§2) Mouse B16 melanoma cells and cells thereof that were forced to express TF were seeded into a four-chamber Culture Slide (BD) at 5×10^4 cells/chamber, and cultured in RPMI 1640 medium at 37° C. under a 5% CO2 environment for 12 hours. The resultant was washed three times with PBS, and then 30 μg of antibody labeled with an Alexa 647 fluorescence labeling kit (Invitrogen) was diluted with 1 ml of RPMI 1640 medium and added to each chamber, followed by culturing for 3 hours. After 2 hours from the initiation of this culturing, Lysotracker® RED-DND99 (Invitrogen) was added to the culture solution to have a final concentration of 75 nM, followed by further culturing for 1 hour. Then, the resultant was washed three times with PBS. After that, immobilization was performed with 4% paraformaldehyde, and nuclear staining was performed with 4′,6-diamidino-2-phenylindole (DAPI), followed by mounting with Fluoromount-G® (Southern Biotech). Then, the cells were observed using a fluorescence microscope (Keyence).

[2] = test system: Pancreatic cancer cells BxPC3 that express TF in high amounts; assay: Internalization assay (anti-hTF antibodies); format: cell-based, human; settings: 30 μg Alexa 647-labeled antibody, culturing for 3 hours, fluorescence microscope
Experimental: as §1
as §2, with “Pancreatic cancer” for “Mouse B16 melanoma”, “BxPC3” for “and cells thereof”, “that” for “that were forced to”, “TF in high amounts” for “TF”

[3] = molecular target: T1, recombinant hTF antigen (Homo sapiens, UniProt P13726); assay: Anticoagulant activity evaluation (prothrombin time); format: biochemical; settings: based on prolonged coagulation time ratio
T1 construct: made in house; host or cells: Escherichia coli
T1 sequence (P13726 with tags, fused parts or gaps): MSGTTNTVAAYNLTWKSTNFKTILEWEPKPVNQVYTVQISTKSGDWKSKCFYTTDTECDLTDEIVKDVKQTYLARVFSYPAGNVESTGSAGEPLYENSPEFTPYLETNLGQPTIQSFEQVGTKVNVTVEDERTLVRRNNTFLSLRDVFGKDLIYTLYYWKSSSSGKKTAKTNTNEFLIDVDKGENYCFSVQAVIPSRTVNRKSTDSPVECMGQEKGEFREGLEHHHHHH
Experimental: The prothrombin time of each of the anti-hTF monoclonal antibodies (No. 1849 and No. 1859) was measured as described below.
3 μg of the antibody was added to 350 ng of a recombinant hTF antigen, and PBS was added to a total volume of 5 μl. An antigen-antibody reaction was performed for 15 minutes under shaking at 37° C. and 600 rpm. To the reaction solution, 50 μl of human […] subjected to anticoagulant treatment with 3.8% sodium citrate, and 100 μl of 25 mM CaCl2 were added, and at the same time, culturing was performed under shaking at 37° C. and 600 rpm. The period of time until a fibrin clot was formed (prothrombin time) was measured. The prolonged coagulation time ratio (prothrombin time ratio) of each antibody when the prothrombin time in a control using PBS in place of the reaction solution is defined as 1 are shown in Table 3 and FIG. 2.

[4] = test system: Human pancreatic cancer cells (BxPC3); assay: Cytocidal effect confirmation test; format: cell-based; settings: BxPC3, 72 hours after addition, compared to mTF-MMAE
Experimental: Human pancreatic cancer cells (BxPC3) were added to a 96-well plate at 3×10^3 cells/well, and cultured in RPMI medium containing 10% FCS, penicillin (100 U/ml), and streptomycin (100 μg/ml) hTF-MMAE was added to the wells at various drug concentrations, and cell survival rates 72 hours after the addition were calculated.
It should be noted that, as a comparative test, a similar test was performed using, in place of hTF-MMAE, mTF-MMAE obtained by binding MMAE, in the same manner as above, to a monoclonal antibody (mTF) against mouse TF not expressed in human cancer cells, and a cell survival rate was calculated. The ratio (%) of each cell survival rate, with the cell survival rate of a negative control (no addition of a drug sample) being defined as 100%, is shown in FIG. 3.

[5] = Body weight in the antitumor effect confirmation test; format: in vivo, nude mice (BALBc nu/nu); settings: BxPC3 xenograft nude mice, 10 mg/kg tail vein on Day 0, 4, 8, until Day 30
Experimental: (§3) 1×10^7 cells/100 μL of human pancreatic cancer cells (BxPC3) were implanted subcutaneously into the backs of 4-week-old nude mice (BALBc nu/nu, female), and treatment was initiated when the tumor volume (calculated based on the tumor diameter) reached about 200 mm^3. The day of initiation of the treatment was defined as Day 0, and a drug was administered to the tail vein once on each of Day 0, Day 4, and Day 8 (administration three times in total). hTF-MMAE was used as the drug, and physiological saline was administered as a control (each group: N=7). The dose of the drug was 10 mg/kg per administration (antibody amount: about 200 μg/mouse). Thereafter, the tumor diameter and the body weight were measured twice a week until Day 30. The ratios of the tumor volume and the body weight to the tumor volume and the body weight at Day 0 are shown in FIG. 4 and FIG. 5, respectively.

[6] = test system: human pancreatic cancer cells (BxPC3) implanted subcutaneously; assay: Antitumor effect confirmation test (tumor volume); format: in vivo, nude mice (BALBc nu/nu); settings: BxPC3 xenograft nude mice, 10 mg/kg tail vein on Day 0, 4, 8, until Day 30
Experimental: as §3

B1: No. 1157: anti-mouse tissue factor monoclonal antibody, heavy/light chain variable regions SEQ ID NOS: 25 and 26 (antibody, V domains shown)
VH: MAEVMLVESGGGLVQPGRSLKLSCLASGFTFTDYGMNWIRQTPGKGLEWVASITVRNYIYYADTVKGRFTISRENAKNTLYLQMTSLTSEDTALYYCSRRTEGMDYWGQGVMVTVSS
VL: MTQSPSFLSASVGDRVTVTCKVSQNINGYLNWYQQKVGEAPKVLIYNTDNLQTDVPSRFSGSGSGTVFTLTISSLHPEDVATHFCLQHYSWPLTFGSGTQLEIKR
modifications: rat
ability to be internalized (fluorescence-labeled antibody transferred into cells) [1]: had the ability to be internalized by a cell expressing mTF

B2: No. 1859: anti-human tissue factor monoclonal antibody, heavy/light chain variable regions SEQ ID NOS: 17 and 18 (antibody, V domains shown)
VH: EVMLVESGPGLVQPSQTLSLICTVSGFSLTDYSVHWVRQPPGKGLEWVGVMWSGGTTTFNSGLKSRLSISRDTSKSQVFLKMYSLRTEDTAVYYCTRERAGSPLNWFAYWGQGTLVTVSS
VL: DIVMTQSPASLSASLEEIVTITCQASQDIGNYLSWYQQKPGKSPHLLIHSSTSLADGVPSRFSGSRSGTQYSLKINRLQVEDTGVYYCLQHYSGSRTFGGGTNLELK
modifications: rat
ability to be internalized (labeling substance transferred into cells) [2]: had the ability to be internalized
anticoagulant activity [3]: extremely small

B3: No. 1849: rat anti-human tissue factor monoclonal antibody, heavy/light chain variable regions SEQ ID NOS: 9 and 10 (antibody, V domains shown)
VH: EVQLVESGGGLVQSGRSLKLSCAASGFTFSDYNMAWIRQAPKKGLEWVAAIIYDGTRTYYRDSVRGRFTISRDNAKSTLYLQVDSLRSEDTATYYCATGDSYTNFAYWGQGTLVTVSS
VL: EIVLTQSPTTMAASPGEKVTLTCRASSSLSYMHWYQQRSGTSPKLWIYETSKLASGVPNRFSGSGSGTSFSLTIDSMETEDAATYYCQQGNSYPRTFGGGTKLELK
modifications: rat
ability to be internalized (labeling substance transferred into cells) [2]: had the ability to be internalized

B4: hTF-MMAE: anti-hTF monoclonal antibody (No. 1849) having monomethyl auristatin E (MMAE) bound thereto, three to five MMAE molecules per antibody (conjugate)
VH: B3 VH
VL: B3 VL
modifications: non-natural residues
cytocidal effect (cell survival rate) [4]: remarkably excellent cytocidal effect
body weight (ratio to Day 0) [5]: a reduction in body weight was not found
antitumor effect (tumor volume ratio to Day 0) [6]: remarkably excellent antitumor effect
